{"source": "paper PMC9859758", "key": {"[1]": {"biological_target": "His-tagged Naumovozyma castellii Kar9 N-terminal domain (NcKar9N, residues 1-410), wild type (Naumovozyma castellii)", "assay": "SEC-MALS; 20 mM Tris-HCl pH 7.5, 150 mM NaCl, 1 mM dithiothreitol; S-200 10/300 column; 30 μl of 200 μM protein injected"}, "[2]": {"biological_target": "His-tagged NcKar9N-β^− (Arg233Ala/Ile237Ala) (Naumovozyma castellii)", "assay": "SEC-MALS; 20 mM Tris-HCl pH 7.5, 50 mM NaCl, 1 mM dithiothreitol; S-200 10/300 column; 30 μl of 200 μM protein injected"}, "[3]": {"biological_target": "His-tagged NcKar9N-β^− (Arg233Ala/Ile237Ala) (Naumovozyma castellii)", "assay": "SEC-MALS; 20 mM Tris-HCl pH 7.5, 150 mM NaCl, 1 mM dithiothreitol; S-200 10/300 column; 30 μl of 200 μM protein injected"}, "[4]": {"biological_target": "His-tagged NcKar9N-γ^− (Tyr363Ala/Arg364Ala) (Naumovozyma castellii)", "assay": "SEC-MALS; 20 mM Tris-HCl pH 7.5, 50 mM NaCl, 1 mM dithiothreitol; S-200 10/300 column; 30 μl of 200 μM protein injected"}}, "data": [{"substance": "His-tagged Naumovozyma castellii Kar9 N-terminal domain (NcKar9N, residues 1-410), wild type (domain or fragment)", "values": [{"measurement": "stoichiometry N", "setting": "[1]", "value": 2}]}, {"substance": "His-tagged NcKar9N-β^− (Arg233Ala/Ile237Ala) (domain or fragment)", "values": [{"measurement": "stoichiometry N", "setting": "[2]", "value": 2}, {"measurement": "stoichiometry N", "setting": "[3]", "value": 2}]}, {"substance": "His-tagged NcKar9N-γ^− (Tyr363Ala/Arg364Ala) (domain or fragment)", "values": [{"measurement": "stoichiometry N", "setting": "[4]", "value": "< 4"}]}]}
